Laboratory results as given in patent publication CN117069840A (BEIJING BIOSYSTEMS BIOLOGICAL TECH CO LTD, dated 2023).

Columns and labels:
Assay in all cases: indirect ELISA, antigen coated at 1 μg/mL, hybridoma supernatant, HRP-anti-mouse IgG
人源IL-6蛋白 = 人源IL-6蛋白 (human, UniProt P05231 30-212)
人源IL-15蛋白 = 人源IL-15蛋白 (human, UniProt P40933 49-162)
人源GM-CSF蛋白 = 人源GM-CSF蛋白 (human, UniProt P04141 18-144)
人源IL-4蛋白 = target: T1, 人源IL-4蛋白 (human, UniProt P05112 25-153)
T1 sequence (looked up): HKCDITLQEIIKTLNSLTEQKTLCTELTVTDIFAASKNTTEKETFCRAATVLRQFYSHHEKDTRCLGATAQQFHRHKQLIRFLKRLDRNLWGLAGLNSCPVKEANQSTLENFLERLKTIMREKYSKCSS

人源IL-2蛋白 = 人源IL-2蛋白 (human, UniProt P60568 21-153)
人源TNF-alpha蛋白 = target: T2, 人源TNF-alpha蛋白 (human, UniProt P01375 77-233)
T2 construct: also called TNF-α

人源IL-7蛋白 = target: T3, 人源IL-7蛋白 (human, UniProt P13232 26-177)
T3 sequence (looked up): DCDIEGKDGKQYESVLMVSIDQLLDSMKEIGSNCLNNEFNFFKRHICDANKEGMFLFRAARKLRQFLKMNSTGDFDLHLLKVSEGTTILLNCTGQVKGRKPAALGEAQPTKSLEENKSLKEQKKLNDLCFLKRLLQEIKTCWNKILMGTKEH

人源IL-10蛋白 = 人源IL-10蛋白 (human, UniProt P22301 19-178)

Measured: binding result

Chain of 人源GM-CSF蛋白 (P04141 18-144 limits assumed): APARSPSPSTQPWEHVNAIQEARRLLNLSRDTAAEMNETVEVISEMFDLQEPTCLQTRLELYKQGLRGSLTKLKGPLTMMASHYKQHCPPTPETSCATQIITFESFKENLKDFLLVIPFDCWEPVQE
Chain of 人源IL-10蛋白 (P22301 19-178 limits assumed): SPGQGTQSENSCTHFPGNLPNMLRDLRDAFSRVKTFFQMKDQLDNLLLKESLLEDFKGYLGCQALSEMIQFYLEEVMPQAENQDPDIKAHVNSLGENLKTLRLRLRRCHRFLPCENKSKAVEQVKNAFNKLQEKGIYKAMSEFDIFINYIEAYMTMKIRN
Chain of 人源IL-15蛋白 (P40933 49-162 limits assumed): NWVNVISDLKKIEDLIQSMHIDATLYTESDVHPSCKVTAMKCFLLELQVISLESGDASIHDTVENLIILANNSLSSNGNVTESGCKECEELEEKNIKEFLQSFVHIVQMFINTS
T2 sequence (P01375 77-233 limits assumed): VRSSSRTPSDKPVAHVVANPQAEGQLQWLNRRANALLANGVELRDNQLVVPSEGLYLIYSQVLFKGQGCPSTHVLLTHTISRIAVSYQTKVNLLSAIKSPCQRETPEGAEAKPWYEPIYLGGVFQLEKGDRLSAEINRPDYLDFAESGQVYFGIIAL
Chain of 人源IL-2蛋白 (P60568 21-153 limits assumed): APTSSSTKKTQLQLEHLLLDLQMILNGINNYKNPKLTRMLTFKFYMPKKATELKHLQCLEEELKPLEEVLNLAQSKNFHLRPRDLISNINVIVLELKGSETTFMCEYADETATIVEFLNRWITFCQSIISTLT

B1: 抗体13A6G6 (antibody, V domains shown)
VH: EVKLEESGGGLVQPGGSTKLSCAASGFTFSDAWMNWVRQSPEKGLEWIAEIRTKTSNHAAYYAASVKGRFTISRDDSKSSVYLQMNSLRPEDTGIYYCTRFDYWGQGTTLTVSS
VL: DVQITQSPSYLAASPGETITINCRASKNINKHLAWYHDKPGKTNKLLIYSGSTLQSGTPSRFSGSGSGTDFTLTISSLEPEDFAVYYCQQHNEYPYTFGGGTKLAIK
notes: Mouse monoclonal antibody from a hybridoma; also called Clone 13A6G6; 克隆号13A6G6
no binding: all assays above

B2: 抗体3G6D7 (antibody, V domains shown)
VH: EIQLQQSGPELVKPGASVKVSCKASGYGFTSYNMNWVKQSHGKSLEWIGYIDPYNGGSGYNQKFKGKATLTVDKSSSTAYMHLISLTSDDSAVYYCARGDYDGGYYGMDYWGQGTSVTVSS
VL: DILLTQSPAILSVSPGESVSFSCRASQSVGTSIHWFQQRTNGSPRLLIKYASESISGIPSRFSGSGSGTDFTLIINSVESEDIADYYCQQSNGWPFTFGSGTKLEIK
notes: Mouse monoclonal antibody from a hybridoma; also called Clone 3G6D7; 克隆号3G6D7
no binding: all assays above
